{
  "source": "paper PMC5426849",
  "about": "(Molecular Biology of the Cell, 2017)",
  "binders": {"B1": {"name": "Arg SH2 domain, monomeric, cleaved from GST (domain or fragment)", "chain": "WYHGPVSRSAAEYLLSSLINGSFLVRESESSPGQLSISLRYEGRVYHYRINTTADGKVYVTAESRFSTLAELVHHHSTVADGLVTTLHYPA"}, "B2": {"name": "fluoresceinated cortactin phospho-Y421 peptide (peptide)", "peptide": "Flu-SSPI[pY]EDAA"}, "B3": {"name": "phosphorylated cortactin (natural protein)", "chain": "not shown", "modifications": "phosphotyrosine (confirmed by anti-phosphotyrosine Western blot; sites of this preparation not stated)"}},
  "key": {"[1]": {"biological_target": "B2", "test": "fluorescence polarisation"}, "[2]": {"biological_target": "Src SH2 domain, monomeric, cleaved from GST (human, UniProt P12931 151-248)", "test": "fluorescence polarisation"}, "[3]": {"biological_target": "Fyn SH2 domain, monomeric, cleaved from GST (human, UniProt P06241 149-246)", "test": "fluorescence polarisation"}, "[4]": {"biological_target": "Nck1 SH2 domain, monomeric, cleaved from GST (human, UniProt P16333 282-376)", "test": "fluorescence polarisation"}, "[5]": {"biological_target": "Brk SH2 domain, monomeric, cleaved from GST (human, UniProt Q13882 78-170)", "test": "fluorescence polarisation"}, "[6]": {"biological_target": "T1, Nap4/SOCS7 SH2 domain, monomeric, cleaved from GST (human, UniProt O14512 400-509)", "T1 sequence": "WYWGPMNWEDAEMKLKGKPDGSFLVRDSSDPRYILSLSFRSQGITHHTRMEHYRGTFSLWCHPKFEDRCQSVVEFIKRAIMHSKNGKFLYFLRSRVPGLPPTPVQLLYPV", "test": "fluorescence polarisation"}, "[7]": {"biological_target": "B1", "test": "fluorescence polarisation"}, "[8]": {"biological_target": "T2, Vav2 SH2 domain, monomeric, cleaved from GST (human, UniProt P52735 673-767)", "T2 sequence": "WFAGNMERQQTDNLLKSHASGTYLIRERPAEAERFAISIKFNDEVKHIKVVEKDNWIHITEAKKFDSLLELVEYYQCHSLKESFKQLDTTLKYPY", "test": "fluorescence polarisation"}, "[9]": {"biological_target": "T3, purified recombinant full-length Vav2 (human, UniProt P52735 1-878)", "T3 sequence": "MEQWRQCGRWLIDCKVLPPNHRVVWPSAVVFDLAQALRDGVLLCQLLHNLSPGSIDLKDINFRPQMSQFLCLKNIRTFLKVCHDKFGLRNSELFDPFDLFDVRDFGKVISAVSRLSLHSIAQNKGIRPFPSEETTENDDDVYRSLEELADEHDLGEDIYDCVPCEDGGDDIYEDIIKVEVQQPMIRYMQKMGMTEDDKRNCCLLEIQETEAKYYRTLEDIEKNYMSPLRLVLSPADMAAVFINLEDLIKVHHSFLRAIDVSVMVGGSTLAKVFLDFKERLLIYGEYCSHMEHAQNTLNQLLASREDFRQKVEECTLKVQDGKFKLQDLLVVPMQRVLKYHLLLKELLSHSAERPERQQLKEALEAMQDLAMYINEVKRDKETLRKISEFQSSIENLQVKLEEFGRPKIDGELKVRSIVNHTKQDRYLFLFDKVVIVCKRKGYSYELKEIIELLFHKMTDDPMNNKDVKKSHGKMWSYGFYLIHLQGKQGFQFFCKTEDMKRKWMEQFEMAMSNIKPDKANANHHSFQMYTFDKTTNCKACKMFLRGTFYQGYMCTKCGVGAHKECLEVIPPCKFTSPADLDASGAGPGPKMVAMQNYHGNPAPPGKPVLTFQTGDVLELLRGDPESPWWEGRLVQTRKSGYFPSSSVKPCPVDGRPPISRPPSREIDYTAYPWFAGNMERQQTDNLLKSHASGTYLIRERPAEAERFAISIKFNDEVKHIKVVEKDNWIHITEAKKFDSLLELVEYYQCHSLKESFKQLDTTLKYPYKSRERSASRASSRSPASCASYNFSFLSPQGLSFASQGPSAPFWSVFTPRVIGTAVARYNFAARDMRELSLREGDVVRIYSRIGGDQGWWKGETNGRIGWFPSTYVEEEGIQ", "test": "pull-down"}},
  "note": "Non-standard residues stand in square brackets, D forms with d. No end group written: not given here. Flu = 5-carboxyfluorescein, coupled after removal of the final Fmoc group; pY = N[C@@H](Cc1ccc(OP(=O)(O)O)cc1)C(=O)O",
  "data": [
    {"binder": "B1", "values": [
      {"measurement": "fold greater affinity than for the phospho-Y466 peptide", "setting": "[1]", "result": 2.5, "unit": "fold"}
    ]},
    {"binder": "B2", "values": [
      {"measurement": "binding result", "setting": "[2]", "result": "binds"},
      {"measurement": "binding result", "setting": "[3]", "result": "binds"},
      {"measurement": "binding result", "setting": "[4]", "result": "binds"},
      {"measurement": "binding result", "setting": "[5]", "result": "binds"},
      {"measurement": "binding result", "setting": "[6]", "result": "binds"}
    ]},
    {"binder": "Flu-EDDT[pY]DGYE", "note": "[fluoresceinated cortactin phospho-Y482 peptide]", "values": [
      {"measurement": "Kd", "setting": "[2]", "result": "> 5", "unit": "µM"},
      {"measurement": "Kd", "setting": "[7]", "result": "> 5", "unit": "µM"},
      {"measurement": "Kd", "setting": "[3]", "result": "> 5", "unit": "µM"},
      {"measurement": "Kd", "setting": "[4]", "result": "> 5", "unit": "µM"},
      {"measurement": "Kd", "setting": "[5]", "result": "> 5", "unit": "µM"},
      {"measurement": "Kd", "setting": "[6]", "result": "> 5", "unit": "µM"},
      {"measurement": "Kd", "setting": "[8]", "result": "> 5", "unit": "µM"}
    ]},
    {"binder": "B3", "values": [
      {"measurement": "Kd", "setting": "[9]", "result": "1.5 ± 0.3", "unit": "µM"}
    ]}
  ]
}
